Consider 167 variants from the RNAGym collection of RNA variant scans (doi:10.7554/elife.80360).

The labels stand for the following.
B1: Hammerhead Ribozyme (parent)
chain: ACCGGAUGUGCUUUCCGGUCUGAUGAGUCCGUGAGGACGAAACAG

In the series the parent is B1. Briefly: self-cleavage, relative activity (ratio to wild type); higher = more cleavage; co-transcriptional.
Regarding U12C C43A, the self-cleavage worked out at 0.278.
In the case of U12C C43U it was 0.486.
In the case of U12C C43G it was 0.305; in that of U12C A23C, 0.361; in that of U12C A23U, 0.321.
For U12C A23G, the self-cleavage came to 0.37.
In the case of U12C U19C it was 0.577.
In the case of U12C U19G it was 0.371; in that of U12C U19A, 0.388; in that of U12C G22C, 0.337.
The same measure for U12C G22U: 0.36; for U12C G22A: 0.36.
For the variant U12G A23G, the self-cleavage is 0.407.
In the case of U12G A23C it was 0.459.
The same measure for U12G A23U: 0.317; for U12G G17A: 0.738; for U12G G17C: 0.436.
In the case of U12G A44G it was 1.57; in that of U12G A44U, 0.565.
Regarding U12G A44C, the self-cleavage was found to be 0.499.
In the case of U12C A42U it was 0.364.
In the case of U12C A42C, the self-cleavage came out at 0.32.
In the case of U12C A42G it was 0.255.
The same measure for U12G C29U: 0.541; for U12G C29G: 0.736; for U12G C29A: 0.643.
In the case of U12C G36C it was 0.713.
Regarding U12C G36A, the self-cleavage came out at 0.55.
The same measure for U12C G36U: 0.498; for U12G C30G: 0.706; for U12G C30A: 0.795.
In the case of U12G C30U, the self-cleavage was found to be 0.983.
The same measure for U12G C16U: 0.968; for U12G C16G: 0.714.
In the case of U12G C16A it was 1.18; in that of U12G, 0.976; in that of U12C, 1.05.
The same measure for U12G A40U: 0.376; for U12G A40G: 0.326.
For U12G A40C, the self-cleavage amounted to 0.366.
The same measure for U12C G45U: 0.564.
In the case of U12C G45A it was 0.777; in that of U12C G45C, 0.73; in that of U12G C15A, 1.09.
In the case of U12G C15G it was 0.819; in that of U12G C15U, 0.823.
Regarding U12G C43G, the self-cleavage stood at 0.181.
The same measure for U12G C43U: 0.43.
The same measure for U12G C43A: 0.362.
For the variant U12G A42U, the self-cleavage is 0.321.
The same measure for U12G A42G: 0.356; for U12G A42C: 0.239; for U12G A26C: 0.475.
In the case of U12G A26U, the self-cleavage came to 0.708.
In the case of U12G A26G it was 0.346; in that of U12C U21A, 0.471; in that of U12C U21C, 0.792.
In the case of U12C U21G, the self-cleavage came to 0.609.
In the case of U12C G39A it was 0.403; in that of U12C G39C, 0.327; in that of U12C G39U, 0.317.
Consider U12A U21C, for which the self-cleavage was 0.517.
The same measure for U12A U21G: 0.425.
In the case of U12A U21A it was 0.658.
For the variant U12C G33U, the self-cleavage worked out at 1.37.
In the case of U12C G33A it was 1.25; in that of U12C G33C, 0.817; in that of U12C G25A, 0.352.
In the case of U12C G25C it was 0.354; in that of U12C G25U, 0.277; in that of U12C A41U, 0.288.
In the case of U12C A41C it was 0.299; in that of U12C A41G, 0.358.
U12C U13C: the self-cleavage was determined as 1.13.
In the case of U12C U13A it was 1.36; in that of U12C U13G, 0.964.
For U12C G17A, the self-cleavage is 0.79.
The same measure for U12C G17U: 0.612.
In the case of U12C G17C it was 0.446; in that of U12A U19A, 0.419.
The same measure for U12A U19G: 0.431; for U12A U19C: 0.366; for U12C C20A: 0.449.
As for U12C C20U, the self-cleavage came out at 0.395.
Consider U12C C20G, for which the self-cleavage stood at 0.324.
Consider U12C G27U, for which the self-cleavage came out at 0.581.
For the variant U12C G27A, the self-cleavage amounted to 0.605.
The same measure for U12C G27C: 0.669; for U12C C16U: 0.878; for U12C C16G: 0.652.
For the variant U12C C16A, the self-cleavage stood at 0.908.
In the case of U12C U24G it was 1.13; in that of U12C U24C, 1.01.
In the case of U12C U24A it was 1.04; in that of U12C U32G, 0.502; in that of U12C U32C, 1.05.
In the case of U12C U32A it was 1.26; in that of U12C G18A, 0.627.
As to U12C G18U, the self-cleavage came to 0.626.
The same measure for U12C G18C: 0.5.
Consider U12C A26G, for which the self-cleavage worked out at 0.308.
With U12C A26U, the self-cleavage worked out at 0.854.
In the case of U12C A26C it was 0.505; in that of U12C C15U, 0.974; in that of U12C C15A, 0.565.
As to U12C C15G, the self-cleavage was determined as 0.474.
Consider U12G C20A, for which the self-cleavage amounted to 0.332.
In the case of U12G C20G it was 0.32; in that of U12G C20U, 0.667.
As to U12C C38G, the self-cleavage was determined as 0.663.
The same measure for U12C C38U: 0.832.
In the case of U12C C38A it was 0.678; in that of U12C C30G, 0.84; in that of U12C C30U, 0.683.
In the case of U12C C30A it was 0.955; in that of U12G A41G, 0.339; in that of U12G A41U, 0.298.
For U12G A41C, the self-cleavage was 0.276.
In the case of U12C C29U it was 0.912; in that of U12C C29G, 0.599.
In the case of U12C C29A it was 0.589.
In the case of U12A U28A, the self-cleavage amounted to 0.873.
The same measure for U12A U28C: 1.1; for U12A U28G: 0.92; for U12G A34U: 0.897.
As to U12G A34C, the self-cleavage came out at 0.841.
In the case of U12G A34G it was 0.909.
The same measure for U12C U14A: 0.832; for U12C U14G: 0.902.
In the case of U12C U14C it was 0.83; in that of U12C A40G, 0.329.
With U12C A40U, the self-cleavage turned out to be 0.379.
In the case of U12C A40C it was 0.531; in that of U12C A37U, 0.727; in that of U12C A37C, 0.573.
In the case of U12C A37G it was 0.915.
In the case of U12A U24A it was 0.937.
Consider U12A U24C, for which the self-cleavage was determined as 0.727.
As for U12A U24G, the self-cleavage was 1.23.
For U12A U14A, the self-cleavage was 0.798.
In the case of U12A U14G, the self-cleavage came out at 0.565.
In the case of U12A U14C it was 0.946; in that of U12C U28A, 0.487; in that of U12C U28G, 0.543.
The same measure for U12C U28C: 1.35; for U12G C38A: 0.711.
As to U12G C38G, the self-cleavage amounted to 0.813.
In the case of U12G C38U it was 1.08.
The same measure for U12C G35A: 0.737.
In the case of U12C G35C it was 0.617.
Turning to U12C G35U, the self-cleavage worked out at 0.834.
The same measure for U12A U32G: 0.878; for U12A U32C: 1.14.
The same measure for U12A U32A: 0.698; for U12G A37U: 0.438.
The same measure for U12G A37G: 1.02; for U12G A37C: 0.88; for U12C G31U: 1.
Take U12C G31A: the self-cleavage is 0.871.
The same measure for U12C G31C: 0.913.
For the variant U12C A44G, the self-cleavage is 1.6.
In the case of U12C A44U it was 0.725; in that of U12C A44C, 0.611.
In the case of U12C A34C it was 0.877; in that of U12C A34U, 0.668; in that of U12C A34G, 1.09.
As for U12A U13G, the self-cleavage came out at 0.762.
